These results are taken from PMC6773726, “The ubiquitin-like modifier FAT10 interferes with SUMO activation” (Nature Communications, 2019).

The target of assay [1] is T1, AOS1/UBA2, heterodimeric SUMO E1 activating enzyme, recombinant (human, UniProt Q9UBE0 1-346; Q9UBT2 1-640).
T1 construct: expressed from pET11d-UBA2; The N-terminal end of the His tag follows from the printed offset of +23 aa; also called SAE1/SAE2; not shown: 6His, N-terminal, kept
T1 sequence (looked up) 1: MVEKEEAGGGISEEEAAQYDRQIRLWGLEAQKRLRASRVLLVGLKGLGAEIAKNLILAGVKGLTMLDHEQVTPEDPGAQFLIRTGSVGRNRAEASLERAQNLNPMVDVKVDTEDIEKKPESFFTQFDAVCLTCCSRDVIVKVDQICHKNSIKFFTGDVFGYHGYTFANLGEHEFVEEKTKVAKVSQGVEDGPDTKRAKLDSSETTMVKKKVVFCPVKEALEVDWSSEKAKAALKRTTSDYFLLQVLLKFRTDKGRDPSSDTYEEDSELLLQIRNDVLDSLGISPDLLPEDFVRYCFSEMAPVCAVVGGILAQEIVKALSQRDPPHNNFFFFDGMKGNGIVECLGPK
T1 sequence (looked up) 2: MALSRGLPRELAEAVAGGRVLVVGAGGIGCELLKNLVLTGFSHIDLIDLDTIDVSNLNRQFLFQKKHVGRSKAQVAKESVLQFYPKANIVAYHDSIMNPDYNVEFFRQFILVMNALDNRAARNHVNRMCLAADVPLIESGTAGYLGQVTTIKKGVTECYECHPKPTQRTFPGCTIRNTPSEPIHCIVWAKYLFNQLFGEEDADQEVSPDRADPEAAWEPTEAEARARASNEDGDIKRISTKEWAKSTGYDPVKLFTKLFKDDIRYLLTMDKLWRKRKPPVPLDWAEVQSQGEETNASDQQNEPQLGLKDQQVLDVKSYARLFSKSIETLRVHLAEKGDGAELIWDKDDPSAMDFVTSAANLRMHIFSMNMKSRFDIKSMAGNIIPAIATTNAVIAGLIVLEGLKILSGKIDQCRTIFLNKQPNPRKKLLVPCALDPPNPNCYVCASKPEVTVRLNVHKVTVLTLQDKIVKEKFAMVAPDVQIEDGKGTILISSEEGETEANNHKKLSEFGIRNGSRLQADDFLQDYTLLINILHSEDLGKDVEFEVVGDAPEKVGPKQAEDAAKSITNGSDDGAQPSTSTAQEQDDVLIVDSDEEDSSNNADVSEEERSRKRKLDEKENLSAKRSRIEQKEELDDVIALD
As to the kind of experiment: co-IP; recombinant proteins: 25 nM AOS1/UBA2 with 0.7 uM of each FAT10 variant in in vitro buffer without ATP; FAT10 precipitated with the antibody 4F1 on protein A sepharose, 3 h at 8 °C; blots for the E1 subunits. Particulars: both partners purified.

Assay [2] deals with T1, AOS1/UBA2, heterodimeric SUMO E1 …. As to the kind of experiment: BLI; Octet (Forte Bio); sensors loaded with 0.1 mg/ml AOS1/UBA2; GST-FAT10 at 0.5, 0.25, 0.1 and 0.05 mg/ml measured versus GST; buffer TNT (50 mM Tris HCl pH 7.6, 100 mM NaCl, 0.1% Triton X-100); association 600 s, dissociation 600 s. Particulars: both partners purified.

Substitutions are numbered along the chain they refer to.

B1: FAT10, recombinant, untagged (natural protein, human, UniProt O15205 2-165, looked up)
chain: APNASCLCVHVRSEEWDLMTFDANPYDSVKKIKEHVRSKTKVPVQDQVLLLGSKILKPRRSLSSYGIDKEKTIHLTLKVVKPSDEELPLFLVESGDEAKRHLLQVRRSSSVAQVKAMIETKTGIIPETQIVTCNGKRLEDGKMMADYGIRKGNLLFLACYCIGG
notes: FAT10 (ubiquitin D, UBD), human; also called wild-type FAT10; source: E. coli BL21(DE3) (pSUMO-FAT10), purified (HisTrap, tag removal with ULP-1, cation exchange)
Regarding B1, in assay [1], the binding result is on record as “binds”.

B2: FAT10-AV, recombinant, untagged (natural protein, human, UniProt O15205 2-165, looked up)
chain: B1 chain with G163A, G164V
notes: FAT10 (ubiquitin D, UBD), human, C-terminal diglycine motif changed from GG to AV; also called FAT10 diglycine mutant FAT10-AV; source: E. coli BL21(DE3) (pSUMO-FAT10-AV), purified (HisTrap, tag removal with ULP-1, cation exchange)
Consider B2, for which, in assay [1], the binding result is “binds”.

B3: GST-FAT10 (natural protein, human, UniProt O15205 1-165, looked up)
chain: MAPNASCLCVHVRSEEWDLMTFDANPYDSVKKIKEHVRSKTKVPVQDQVLLLGSKILKPRRSLSSYGIDKEKTIHLTLKVVKPSDEELPLFLVESGDEAKRHLLQVRRSSSVAQVKAMIETKTGIIPETQIVTCNGKRLEDGKMMADYGIRKGNLLFLACYCIGG
notes: FAT10 (ubiquitin D, UBD), human; also called FAT10 (in the sentence that gives the Kd); source: E. coli BL21(DE3) (pGEX4T-3-FAT10), purified (glutathione agarose, PD-10 desalting)
Turning to B3, the Kd in assay [2] was 1800 nM.
